Assay results from patent US20030171559A1 (Amgen, published 2003).
Substitutions are numbered along the chain they refer to.

B1: G-CSF analog Gln26->Ala26 (ligand)
chain: MTPLGPASSLPQSFLLKCLEQVRKIAGDGAALQEKLCATYKLCHPEELVLLGHSLGIPWAPLSSCPSQALQLAGCLSQLHSGLFLYQGLLQALEGISPELGPTLDTLQLDVADFATTIWQQMEELGMAPALQPTQGAMPAFASAFQRRAGGVLVASHLQSFLEVSYRVLRHLAQP
B2: G-CSF analog Met127,138->Leu127,138 (ligand)
chain: B1 chain with A26Q, M127L, M138L
B3: G-CSF analog Asp113->Ala113 (ligand)
chain: B1 chain with A26Q, D113A
B4: G-CSF analog His53->Ala53 (ligand)
chain: B1 chain with A26Q, H53A
B5: G-CSF analog Lys41->Ala41 (ligand)
chain: B1 chain with A26Q, K41A
B6: G-CSF analog Lys17->Ala17 (ligand)
chain: B1 chain with K17A, A26Q
B7: G-CSF analog Lys24->Ala24 (ligand)
chain: B1 chain with K24A, A26Q
B8: G-CSF analog His44->Ala44 (ligand)
chain: B1 chain with A26Q, H44A
B9: G-CSF analog Arg167->Ala167 (ligand)
chain: B1 chain with A26Q, R167A
B10: G-CSF analog Gln121->Ala121 (ligand)
chain: B1 chain with A26Q, Q121A
B11: G-CSF analog Glu47->Ala47 (ligand)
chain: B1 chain with A26Q, E47A
B12: G-CSF analog Arg170->Ala170 (ligand)
chain: B1 chain with A26Q, R170A
B13: G-CSF analog Glu124->Ala124 (ligand)
chain: B1 chain with A26Q, E124A
B14: G-CSF analog Asp110->Ala110 (ligand)
chain: B1 chain with A26Q, D110A
B15: G-CSF analog Ser13->Ala13 (ligand)
chain: B1 chain with S13A, A26Q
B16: G-CSF analog Phe114->Val114, Thr117->Ala117 (ligand)
chain: B1 chain with A26Q, F114V, T117A
B17: G-CSF analog Gln21->Ala21 (ligand)
chain: B1 chain with Q21A, A26Q
B18: G-CSF analog Gln174->Ala174 (ligand)
chain: B1 chain with A26Q, Q174A
B19: G-CSF analog Thr117->Ala117 (ligand)
chain: B1 chain with A26Q, T117A
B20: G-CSF analog Glu20->Ala20 (ligand)
chain: B1 chain with E20A, A26Q
B21: G-CSF analog Arg23->Ala23 (ligand)
chain: B1 chain with R23A, A26Q
B22: G-CSF analog Asp28->Ala28 (ligand)
chain: B1 chain with A26Q, D28A
B23: G-CSF analog His44->Lys44 (ligand)
chain: B1 chain with A26Q, H44K
B24: G-CSF analog Asp28->Ala28; Asp110->Ala110 (ligand)
chain: B1 chain with A26Q, D28A, D110A
B25: G-CSF analog Glu20->Ala20; Ser13->Gly13 (ligand)
chain: B1 chain with S13G, E20A, A26Q

target: T1, G-CSF receptor (natural G-CSF receptor, found on hematopoietic cells) (mouse (bone marrow cells of Balb C …, UniProt P40223 26-837)); assay: cell-based or functional assay
T1 sequence (looked up): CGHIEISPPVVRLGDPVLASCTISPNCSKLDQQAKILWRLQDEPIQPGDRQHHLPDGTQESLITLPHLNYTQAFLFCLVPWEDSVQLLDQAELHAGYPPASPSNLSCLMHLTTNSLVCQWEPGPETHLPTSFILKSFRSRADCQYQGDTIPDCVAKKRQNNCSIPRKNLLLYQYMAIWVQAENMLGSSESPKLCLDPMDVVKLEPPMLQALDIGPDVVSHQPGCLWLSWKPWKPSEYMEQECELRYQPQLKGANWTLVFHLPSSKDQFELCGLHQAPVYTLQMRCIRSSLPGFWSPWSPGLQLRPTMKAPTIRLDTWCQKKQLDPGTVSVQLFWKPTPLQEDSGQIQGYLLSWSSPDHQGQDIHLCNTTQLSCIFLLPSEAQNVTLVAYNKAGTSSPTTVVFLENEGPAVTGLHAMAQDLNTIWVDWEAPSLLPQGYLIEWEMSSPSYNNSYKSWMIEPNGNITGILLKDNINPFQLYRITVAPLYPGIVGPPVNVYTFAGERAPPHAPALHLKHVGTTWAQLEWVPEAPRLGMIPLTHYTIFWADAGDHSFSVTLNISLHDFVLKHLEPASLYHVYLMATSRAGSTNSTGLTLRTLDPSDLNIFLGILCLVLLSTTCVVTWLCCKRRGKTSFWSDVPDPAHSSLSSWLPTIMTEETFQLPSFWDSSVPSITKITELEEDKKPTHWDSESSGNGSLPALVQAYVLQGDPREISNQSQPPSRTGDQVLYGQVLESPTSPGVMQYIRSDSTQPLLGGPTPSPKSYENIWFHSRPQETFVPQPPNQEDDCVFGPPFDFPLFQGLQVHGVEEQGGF

Row | Binder | % Normal G-CSF Activity (3H-thymidine uptake, mouse bone marrow cells) [%]
1 | B1 | 51
2 | B2 | 98
3 | B3 | 0
4 | B4 | 8.3
5 | B5 | 81
6 | B6 | 70
7 | B7 | 0
8 | B8 | 10.8
9 | B9 | 110
10 | B10 | 100
11 | B11 | 0
12 | B12 | 100
13 | B13 | 75
14 | B14 | 29
15 | B15 | 110
16 | B16 | 0
17 | B17 | 9.6
18 | B18 | 100
19 | B19 | 9.7
20 | B20 | 0
21 | B21 | 31
22 | B22 | 147
23 | B23 | 70
24 | B24 | 20.6
25 | B25 | 0
